Results reported in PMC6308234 (Scientific Reports, 2018).

T1: DENV-2 nonstructural protein 1 (NS1), recombinant (dengue virus serotype 2 (DENV-2))
T1 chain: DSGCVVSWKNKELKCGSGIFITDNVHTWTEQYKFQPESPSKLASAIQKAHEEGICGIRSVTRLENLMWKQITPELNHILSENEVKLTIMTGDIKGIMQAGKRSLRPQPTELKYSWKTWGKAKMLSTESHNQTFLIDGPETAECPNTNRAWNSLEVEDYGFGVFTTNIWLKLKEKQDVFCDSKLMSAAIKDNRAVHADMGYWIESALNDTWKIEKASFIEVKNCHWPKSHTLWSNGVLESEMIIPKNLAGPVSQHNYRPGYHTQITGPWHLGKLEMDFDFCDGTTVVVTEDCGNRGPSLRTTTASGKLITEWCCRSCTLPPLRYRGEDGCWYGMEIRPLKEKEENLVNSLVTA

T2: DENV-1 nonstructural protein 1 (NS1), recombinant (dengue virus serotype 1 (DENV-1))
T2 chain: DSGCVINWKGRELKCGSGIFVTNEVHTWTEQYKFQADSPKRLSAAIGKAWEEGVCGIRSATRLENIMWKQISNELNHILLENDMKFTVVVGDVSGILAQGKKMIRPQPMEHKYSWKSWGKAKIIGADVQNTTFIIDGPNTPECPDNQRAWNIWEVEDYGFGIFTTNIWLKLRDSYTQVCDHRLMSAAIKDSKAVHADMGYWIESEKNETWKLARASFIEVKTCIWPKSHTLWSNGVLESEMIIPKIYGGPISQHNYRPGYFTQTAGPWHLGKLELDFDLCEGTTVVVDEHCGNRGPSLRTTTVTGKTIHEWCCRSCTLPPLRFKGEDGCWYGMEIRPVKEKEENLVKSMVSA

T3: DENV-4 nonstructural protein 1 (NS1), recombinant (dengue virus serotype 4 (DENV-4))
T3 chain: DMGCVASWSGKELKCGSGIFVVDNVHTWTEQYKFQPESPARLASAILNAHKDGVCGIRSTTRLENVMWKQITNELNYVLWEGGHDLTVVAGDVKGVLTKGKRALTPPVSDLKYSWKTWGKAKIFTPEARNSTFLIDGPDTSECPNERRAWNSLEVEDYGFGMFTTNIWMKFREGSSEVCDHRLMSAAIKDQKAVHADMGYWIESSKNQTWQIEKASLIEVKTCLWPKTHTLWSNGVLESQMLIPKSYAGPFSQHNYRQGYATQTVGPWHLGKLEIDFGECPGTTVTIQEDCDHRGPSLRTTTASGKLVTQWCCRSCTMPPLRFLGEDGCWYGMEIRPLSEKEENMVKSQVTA

T4: DENV-3 nonstructural protein 1 (NS1), recombinant (dengue virus serotype 3 (DENV-3))
T4 chain: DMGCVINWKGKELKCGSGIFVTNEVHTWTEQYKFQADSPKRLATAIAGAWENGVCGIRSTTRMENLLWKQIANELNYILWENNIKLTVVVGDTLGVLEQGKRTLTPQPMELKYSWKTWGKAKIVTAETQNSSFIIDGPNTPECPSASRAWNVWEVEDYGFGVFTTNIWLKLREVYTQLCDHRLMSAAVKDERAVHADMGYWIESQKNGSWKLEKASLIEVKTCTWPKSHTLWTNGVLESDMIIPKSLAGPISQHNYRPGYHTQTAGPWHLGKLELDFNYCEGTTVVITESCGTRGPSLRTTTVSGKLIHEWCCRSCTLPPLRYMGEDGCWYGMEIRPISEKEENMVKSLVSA


Tests used:
[1] = biological target: T5, DENV-1 nonstructural protein 1 (NS1), recombinant (Dengue virus 1, strain Nauru/West …, UniProt P17763); assay: SPR; conditions: both partners purified
T5 construct: also called DENV-1 NS1; NS1 from DENV-1; source: bought: Native Antigen Company (recombinant)

[2] = biological target: T6, DENV-2 nonstructural protein 1 (NS1), recombinant (Dengue virus 2, strain …, UniProt P29990); assay: SPR; conditions: both partners purified
T6 construct: also called DENV-2 NS1; NS1 from DENV-2; source: bought: Native Antigen Company (recombinant)

[3] = biological target: T7, DENV-3 nonstructural protein 1 (NS1), recombinant (Dengue virus 3, strain Sri …, UniProt Q6YMS4); assay: SPR; conditions: both partners purified
T7 construct: also called DENV-3 NS1; NS1 from DENV-3; source: bought: Native Antigen Company (recombinant)

[4] = biological target: T8, DENV-4 nonstructural protein 1 (NS1), recombinant (Dengue virus 4, strain …, UniProt P09866); assay: SPR; conditions: both partners purified
T8 construct: also called DENV-4 NS1; NS1 from DENV-4; source: bought: Native Antigen Company (recombinant)

[5] = biological target: T5, DENV-1 nonstructural protein 1 (NS1), …; assay: SPR; conditions: both partners purified; remark: listed apart in the source
[6] = biological target: T6, DENV-2 nonstructural protein 1 (NS1), …; assay: SPR; conditions: both partners purified; remark: listed apart in the source
[7] = biological target: T7, DENV-3 nonstructural protein 1 (NS1), …; assay: SPR; conditions: both partners purified; remark: listed apart in the source
[8] = biological target: T8, DENV-4 nonstructural protein 1 (NS1), …; assay: SPR; conditions: both partners purified; remark: listed apart in the source
[9] = biological target: T1, DENV-2 nonstructural protein 1 (NS1), …; assay: SPR; sdAb immobilized
[10] = biological target: T2, DENV-1 nonstructural protein 1 (NS1), …; assay: SPR; sdAb immobilized
[11] = biological target: T1, DENV-2 nonstructural protein 1 (NS1), …; assay: SPR; sdAb immobilized
[12] = biological target: T2, DENV-1 nonstructural protein 1 (NS1), …; assay: SPR; NS1 immobilized
[13] = biological target: T3, DENV-4 nonstructural protein 1 (NS1), …; assay: SPR; NS1 immobilized
[14] = biological target: T1, DENV-2 nonstructural protein 1 (NS1), …; assay: SPR; NS1 immobilized
[15] = biological target: T4, DENV-3 nonstructural protein 1 (NS1), …; assay: SPR; NS1 immobilized
[16] = biological target: T6, DENV-2 nonstructural protein 1 (NS1), …; assay: MagPlex (Luminex) bead assay, direct binding; conditions: both partners purified

Binder | Kd [1] [nM] | Kd [2] [nM] | Kd [3] [nM] | Kd [4] [nM] | Kd [5] [nM] | Kd [6] [nM] | Kd [7] [nM] | Kd [8] [nM] | Kd [9] [nM] | koff [10] [s⁻¹] | koff [11] [s⁻¹] | koff [12] [s⁻¹] | koff [13] [s⁻¹] | koff [14] [s⁻¹] | koff [15] [s⁻¹] | binding result [1] | binding result [2] | binding result [4] | binding result [16]
sdAb DC7 (VHH, source: E. coli Turner (DE3), pET22b, periplasmic, purified (Ni-Sepharose, SEC)) VHH: EVQLQASGGGSVQAGGSLRLSCAHSSITVPDYTIGWYRRAPGKGGEEVSLISMHGGRTWYAGSVKGRFAISRDSVKNTVYLQMNNLKPEDTDIYYCGGTTFGLAAAPNEYDSWGQGSQVTVSS | 9.1 | 2.6 | 1.2 | 2.2 | 0.8 | 0.6 | 1.7 | 0.7 | 0.556 | 0.00021 | 0.000155 | – | – | – | – | – | – | – | –
sdAb DD7 (VHH, source: E. coli Turner (DE3), pET22b, periplasmic, purified (Ni-Sepharose, SEC)) VHH: EVQLVQSGGGSVQAGGSLRLSCAHSSITVPDYTIGWFRRAPGKGGEEVSLISMHGGRSWYAGSVKGRFAISRDSVKNTVYLQMNNLKPEDTDIYYCGGTTFGLAAAPNEYDSWGQGSQVTVSS | 5.4 | 20.3 | 7 | 2.4 | 1.7 | 1.5 | 2.4 | 1.1 | – | 0.000423 | 0.000435 | – | – | – | – | – | – | – | –
sdAb DD6 (VHH, source: E. coli Turner (DE3), pET22b, periplasmic, purified (Ni-Sepharose, SEC)) VHH: EVQLQASGGGSVQAGGSLRLSCAHSSITVPDYTIGWYRRAPGKGGEEVSLISMHGGRTWYAGSVKGRFAISRDSVKNTVYLQMNNLKPEDTDIYYCGGTTFGLAAAPNEYDSWGQGSQVTVSS | 7.6 | 2 | 1.1 | 2.5 | – | – | – | – | – | – | – | – | – | – | – | – | – | – | –
sdAb DD5 (VHH, source: E. coli Turner (DE3), pET22b, periplasmic, purified (Ni-Sepharose, SEC)) VHH: EVQLQASGGGLVQAGGSLRLSCAASGRAFSSETMGWFRQAPGKEREFVAAIWRIGGSTYNTDYADSVKGRFAISADRAKNTVDLQMNTLKPEDTAVYYCAGKMRGRSVNLYDYDYWGQGTQVTVSS | 2.8 | 4.5 | 3.2 | 24 | 4.2 | 0.9 | 25.1 | 6.2 | – | 0.000318 | 7.99e-05 | 0.000383 | 0.00193 | 0.000347 | 0.000269 | – | – | – | –
sdAb DB5 (VHH, source: E. coli Turner (DE3), pET22b, periplasmic, purified (Ni-Sepharose, SEC)) VHH: DVQLQASGGGLVQDGGSLRLSCAASGLGFRIHSMGWYRQAPGKARDLVAVITDSGQTNYAPSVKGRFTISRESAGNTVYLQMNSLKPDDTAVYYCAVTTWDPHSYWGQGTQVTVSS | – | – | 4.4 | – | – | – | 1.6 | – | – | – | – | – | – | – | – | no binding (tested: typically up to 300 nM) | no binding (tested: typically up to 300 nM) | no binding (tested: typically up to 300 nM) | –
biotinylated sdAb DB5 (VHH, also called Bt-DB5) VHH: DVQLQASGGGLVQDGGSLRLSCAASGLGFRIHSMGWYRQAPGKARDLVAVITDSGQTNYAPSVKGRFTISRESAGNTVYLQMNSLKPDDTAVYYCAVTTWDPHSYWGQGTQVTVSS | – | – | – | – | – | – | – | – | – | – | – | – | – | – | – | – | – | – | no binding
sdAb DD9 (VHH, source: E. coli Turner (DE3), pET22b, periplasmic, purified (Ni-Sepharose, SEC)) VHH: EVQLQASGGGLVQAGGSLRVSCAASGIAFTNYALAWYRQPPGKQREWVATVGVLGGTKYADSVKGRFAISRDNAKNTVILQMNSLKPVDTAVYFCAAVEWSNGRYYWDSWGQGTQVTVSA | 18 | 6.7 | 21.8 | 34.8 | 2.7 | 3.5 | 3.1 | 7.1 | – | 0.000289 | 0.00034 | 0.00141 | 0.00428 | 0.000545 | 0.000951 | – | – | – | –
sdAb DC4 (VHH, source: E. coli Turner (DE3), pET22b, periplasmic, purified (Ni-Sepharose, SEC)) VHH: EVQLQASGGGLVQAGGSLRLSCAASERTFSHYFVGWFRQAPGKEREFVARITWSGSNVEYEDAVKDRFTLSSDNAKNTVYLHMNSLKPEDTAVYYCAAANTIWTPTIRDYNVWGQGTQVTVSS | 62 | 42.1 | 31.6 | 43 | – | – | – | – | – | – | – | 0.00889 | 0.00501 | 0.00604 | 0.00741 | – | – | – | –
sdAb DD1 (VHH, source: E. coli Turner (DE3), pET22b, periplasmic, purified (Ni-Sepharose, SEC)) VHH: EVQLQASGGGLVQAGGSLRVSCAATGIAFASYAVAWYRQAPGKQREWVATVGGLGGTKYVDSVKGRFTISRDNAKNAVTLQMNSLKPEDTAVYYCAAVEWDDGHYYWDTWGQGTRVTVSA | 28.5 | 15 | 85.8 | 7.8 | 2.2 | 2.3 | 17.7 | 0.6 | – | 0.000206 | 0.000182 | – | – | – | – | – | – | – | –
sdAb DH4 (VHH, source: E. coli Turner (DE3), pET22b, periplasmic, purified (Ni-Sepharose, SEC)) VHH: DVQLQASGGGVVQAGGSLRVSCAATGIAFASYAVAWYRQAPGKQREWVATVGGLGGTKYVDSVRGRFTISRDNAKNAVTLQMNSLKPEDTAVYYCAAVEWDDGHYYWDTWGQGTRVTVSA | 10.3 | 8.5 | 23.8 | 8.5 | – | – | – | – | – | – | – | – | – | – | – | – | – | – | –
sdAb DH12 (VHH, source: E. coli Turner (DE3), pET22b, periplasmic, purified (Ni-Sepharose, SEC)) VHH: EVQLVESGGGSVQAGGSLRLSCAASERTFSYYFMGWFRQAPGKEREWVARIRWNGDGADYTDAVKDRFTISSDHAKNTVYLQMNSLKPEDTAVYYCAAANSIWKPTTRDYNYWGQGTQVSVSS | 14.4 | 9.8 | 12.4 | 20.9 | – | – | – | – | – | – | – | 0.00658 | 0.00604 | 0.00333 | 0.00323 | – | – | – | –
